“And” between values parts separate entries of the source, which are not always exact repeats. Equal entries are not always repeated.
Experiments:
PD1-His [1] = biological target: T1, PD1-His (human, UniProt Q15116 25-170); test: ELISA, coated PD1-His
T1 construct: extracellular domain; Expressed in HEK293F; also called recombinant protein PD1-His; not shown: polyhistidine tag

PD-L1-His [2] = biological target: T2, PD-L1-His (human, UniProt Q9NZQ7 19-238); test: ELISA, coated PD-L1-His
T2 construct: extracellular domain; Expressed in HEK293F; also called recombinant protein PD-L1-His; not shown: polyhistidine tag

PD1-His [3] = biological target: T1, PD1-His; test: SPR (Biacore 8K), antibody captured on Protein A/G chip, PD1-His injected
Experimental: (§1) Herein, the affinity of the above antibodies to PD-1 or PD-L1 was determined by Biacore 8K (GE healthcare). On Biacore 8K, the chip coupled with Protein A/G was used to capture various antibodies, respectively, and then the recombinant protein PD1-His or PD-L1-His was injected to obtain the binding-dissociation curve, which was eluted with 6M guanidine hydrochloride regeneration buffer for next cycle. Data were analyzed using the Biacore 8K Evaluation Software.

PD-L1-His [4] = biological target: T2, PD-L1-His; test: SPR (Biacore 8K), antibody captured on Protein A/G chip, PD-L1-His injected
Experimental: as §1

PD-L1-ECD-hFc [5] = biological target: T3, PD-L1-ECD-hFc (human, UniProt Q9NZQ7 19-238); test: ELISA, plate coated with PD-L1-ECD-hFc 10 ng/well, OD450
T3 construct: extracellular domain; also called biotinylated PD-L1-ECD-hFc; not shown: Fc segment of human IgG1
Experimental: (§2) The plates were blocked with PBST containing 1% BSA. The antibodies to be tested were serially diluted, then transferred to the above plates coated with recombinant proteins, incubated at room temperature for half an hour and then the plates were washed; an appropriately diluted HRP-labeled goat anti-human antibody (Fc-Specific) (purchased from Sisgma) was added, incubated at room temperature for half an hour and then the plates were washed; chromogenic solution with TMB as a substrate was added at 100 μl/well, incubated at room temperature for 1˜5 min; 50 μl of stop solution (2M H₂SO₄) was added to stop the reaction. OD450 values were read with a microplate reader (SpectraMax 190). Graphing and data analysis were performed using GraphPad Prism6, and EC50 values were calculated.

PD-L1-ECD-hFc [6] = biological target: T3, PD-L1-ECD-hFc; test: competition ELISA: blocks biotinylated PD-L1-ECD-hFc binding to coated PD1-ECD-hFc
Experimental: Human PD-1-ECD-hFc was diluted to 2 μg/ml with sodium carbonate buffer (1.59 g Na₂CO₃ and 2.93 g NaHCO₃ dissolved in 1 L of pure water), and added into a 96-well ELISA plate with a multichannel pipette at 100 μl/well, incubated at room temperature for 4 h; washed once with PBST, blocked with PBST containing 1% BSA at 200 μl/well, incubated at room temperature for 2 h; the blocking solution was discarded, the plate was patted dry, and placed at 4° C. for later use. […] OD450 values were read with a microplate reader (SpectraMax 190). Graphing and data analysis were performed using GraphPad Prism6, and IC50 values were calculated.

PD-L1-ECD-hFc [7] = biological target: T3, PD-L1-ECD-hFc; test: ELISA, coated PD-L1-ECD-hFc
Experimental: as §2

PD1-ECD-hFc [8] = biological target: T4, PD1-ECD-hFc (human, UniProt Q15116 25-170); test: ELISA, plate coated with PD1-ECD-hFc 10 ng/well, OD450
T4 construct: extracellular domain; also called Human PD-1-ECD-hFc; human PD1-ECD-hFc; not shown: Fc segment of human IgG1
Experimental: as §2

PD1-His [9] = biological target: T1, PD1-His; test: ELISA, plate coated with PD1-His 10 ng/well, OD450
PD1-ECD-hFc [10] = biological target: T4, PD1-ECD-hFc; test: ELISA, coated PD1-ECD-hFc
Experimental: as §2

T3 sequence (Q9NZQ7 19-238 limits assumed): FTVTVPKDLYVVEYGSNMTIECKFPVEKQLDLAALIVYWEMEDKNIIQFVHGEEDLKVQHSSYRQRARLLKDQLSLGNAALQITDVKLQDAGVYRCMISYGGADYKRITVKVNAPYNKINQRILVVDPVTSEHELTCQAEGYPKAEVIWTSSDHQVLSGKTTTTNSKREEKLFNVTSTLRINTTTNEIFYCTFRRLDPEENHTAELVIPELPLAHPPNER
T2 sequence (Q9NZQ7 19-238): as the sequence (Q9NZQ7 19-238 limits assumed) above
T4 sequence (Q15116 25-170 limits assumed): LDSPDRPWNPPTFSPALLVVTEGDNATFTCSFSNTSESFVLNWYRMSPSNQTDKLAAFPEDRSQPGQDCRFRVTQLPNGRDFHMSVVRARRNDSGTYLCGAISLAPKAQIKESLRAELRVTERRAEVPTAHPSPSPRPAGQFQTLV
T1 sequence (Q15116 25-170): as the sequence (Q15116 25-170 limits assumed) above

EC50 (PD1-His [1]) | EC50 (PD-L1-His [2]) | Kd (PD1-His [3]) | koff (PD1-His [3]) | kon (PD1-His [3]) | Kd (PD-L1-His [4]) | koff (PD-L1-His [4]) | kon (PD-L1-His [4]) | Binder | binding result (PD1-ECD-hFc [8]) | further results
5.31 nM | 0.14 nM | – | – | – | – | – | – | PDL1-Fab-609-IgG4 (bispecific antibody, expressed with the common light chain Anti-PDL1-LC; also called tetravalent bispecific antibody against PD-1 and PD-L1) heavy: not shown light: EIVLTQSPDFLSVTPKEKVTITCRASQSIGTTIHWYQQKPDQSPKLLIKYASQSFSGVPSRFSGSGSGTDFTLTINSVEAEDAATYYCQQSNSWPLTFGAGTKLEIKRTVAAPSVFIFPPSDEQLKSGTASVVCLLNNFYPREAKVQWKVDNALQSGNSQESVTEQDSKDSTYSLSSTLTLSKADYEKHKVYACEVTHQGLSSPVTKSFNRGEC | – | –
0.421 nM | 0.135 nM | 25.7 nM | 0.00443 s⁻¹ | 173000 M⁻¹ s⁻¹ | 0.608 nM | 0.00112 s⁻¹ | 1.85e+06 M⁻¹ s⁻¹ | 609-Fab-PDL1-IgG4 (bispecific antibody, expressed with the common light chain Anti-PDL1-LC; also called tetravalent bispecific antibody against PD-1 and PD-L1) heavy: not shown light: EIVLTQSPDFLSVTPKEKVTITCRASQSIGTTIHWYQQKPDQSPKLLIKYASQSFSGVPSRFSGSGSGTDFTLTINSVEAEDAATYYCQQSNSWPLTFGAGTKLEIKRTVAAPSVFIFPPSDEQLKSGTASVVCLLNNFYPREAKVQWKVDNALQSGNSQESVTEQDSKDSTYSLSSTLTLSKADYEKHKVYACEVTHQGLSSPVTKSFNRGEC | – | –
– | – | – | – | – | – | – | – | mAb1-25-Hu (609) (antibody, human IgG4 S228P, kappa, V domains shown, Humanized anti-human PD-1 monoclonal antibody, human IgG4 (S228P) / kappa) VH: EVKLVESGGGLVQPGGSLRLSCAASGFAFSSYDMSWVRQAPGKRLEWVATISGGGRYTYYPDTVKGRFTISRDNAKNSHYLQMNSLRAEDTAVYFCASPYGGYFDVWGQGTLVTVSS VL: EIVLTQSPATLSLSPGERATLSCRASQSISNFLHWYQQKPGQAPRLLIKYASQSISGIPARFSGSGSGTDFTLTISSLEPEDFAVYFCQQSNSWPHTFGQGTKVEIKR | – | binding result (PD-L1-ECD-hFc [5]): no binding (tested: log10(nM) about 2.1 (about 130 nM))
– | 0.12 nM and 0.102 nM | – | – | – | 0.843 nM | 0.00138 s⁻¹ | 1.63e+06 M⁻¹ s⁻¹ | Anti-PDL1 (antibody, human IgG1, kappa, V domains shown, Humanized from murine M8; human IgG1 / kappa; also called humanized anti-human PD-L1 antibody; Anti-PDL1-HC+Anti-PDL1-LC) VH: QVQLQQSGGGLVKPSQSLSLTCTVSGFSLTSYGVHWVRQPPGKGLEWIGLIWSGGGTDYNPSLKSRLTISRDTSKNQVSFKISSLTAADTAVYYCARQLGLRAMDYWGQGTSVTVSS VL: EIVLTQSPDFLSVTPKEKVTITCRASQSIGTTIHWYQQKPDQSPKLLIKYASQSFSGVPSRFSGSGSGTDFTLTINSVEAEDAATYYCQQSNSWPLTFGAGTKLEIKR | no binding (tested: log10(nM) about 2.1 (about 130 nM)) | IC50 (PD-L1-ECD-hFc [6]): 1.37 nM; EC50 (PD-L1-ECD-hFc [7]): 0.125 nM; binding result (PD1-His [9]): no binding (tested: log10(nM) about 2.4 (about 250 nM))
0.382 nM | – | 34.9 nM | 0.00439 s⁻¹ | 126000 M⁻¹ s⁻¹ | – | – | – | 609-HC+Anti-PDL1-LC (antibody, human IgG4 S228P, kappa, V domains shown, also called hybrid antibody) VH: EVKLVESGGGLVQPGGSLRLSCAASGFAFSSYDMSWVRQAPGKRLEWVATISGGGRYTYYPDTVKGRFTISRDNAKNSHYLQMNSLRAEDTAVYFCASPYGGYFDVWGQGTLVTVSS VL: EIVLTQSPDFLSVTPKEKVTITCRASQSIGTTIHWYQQKPDQSPKLLIKYASQSFSGVPSRFSGSGSGTDFTLTINSVEAEDAATYYCQQSNSWPLTFGAGTKLEIKR | – | EC50 (PD1-ECD-hFc [10]): 0.243 nM
– | – | – | – | – | – | – | – | Anti-PDL1-HC+609-LC (antibody, human IgG1, kappa, V domains shown, also called hybrid antibody) VH: QVQLQQSGGGLVKPSQSLSLTCTVSGFSLTSYGVHWVRQPPGKGLEWIGLIWSGGGTDYNPSLKSRLTISRDTSKNQVSFKISSLTAADTAVYYCARQLGLRAMDYWGQGTSVTVSS VL: EIVLTQSPATLSLSPGERATLSCRASQSISNFLHWYQQKPGQAPRLLIKYASQSISGIPARFSGSGSGTDFTLTISSLEPEDFAVYFCQQSNSWPHTFGQGTKVEIKR | no binding (tested: log10(nM) about 2.1 (about 130 nM)) | –
